Laboratory results reported in US12186374B2 (Sanofi-Aventis Deutschland GmbH, priority 2014, dated 2025).

Assays:
[1] = system: patients with Type 2 diabetes mellitus (T2DM); assay: Average 7-point SMPG change from baseline to Week 30 (Example 2); type: in vivo, human; conditions: mITT population
From the text: Self-monitored plasma glucose (SMPG)”, as used herein, is in particular the “7-point Self Monitored Plasma Glucose”. “7-point Self Monitored Plasma Glucose” in particular refers to the measurement of plasma glucose seven times a day and calculation of the average plasma glucose concentration therefrom. The “7-point Self Monitored Plasma Glucose” value is in particular an average plasma glucose concentration including fasting and postprandial conditions. In particular, measurements of plasma glucose concentration are performed pre-breakfast, post-breakfast (e.g. 2-hour post-breakfast), pre-lunch, post-lunch (e.g. 2-hour post-lunch), pre-dinner, post-dinner (e.g. 2-hour post-dinner) and at bed-time.
The 7-point SMPG profile should be measured at the following 7 points: pre-prandial and 2 hours postprandial for breakfast, lunch, dinner and at bedtime. Two hours postprandial (breakfast, lunch and dinner) is defined as 2 hours after the start of the meal.
The patients are requested to perform 7-point SMPG profile measurement over a single 24-hour period on 2 Different Days in the Week Before V6 (Week 0), V15 (Week 12), and V21 (week 30, end of treatment assessment visit). All SMPG values measured on these days will be recorded in diary and transferred into the e-CRF.

[2] = system: patients with T2DM; set-up: species or system human; conditions: in vivo
From the text: (§1) In case the investigator or the patient recognizes any signs of local intolerability at injection site this should be recorded on the standard AE page in the e-CRF. AEs related to local intolerability at the injection site will be identified by searching the term “injection site” in either the PTs coded from the investigator reported terms or the PTs coded from the ARAC diagnosis terms. The number (%) of patients with related events will be summarized by treatment group.

[3] = system: patients with Type 2 diabetes mellitus (T2DM); set-up: species or system human; conditions: in vivo
From the text: as §1

[4] = system: patients with T2DM; assay: Treatment-emergent adverse events incl. serious, fatal, leading to discontinuation (Example 3)
[5] = PT ≥3% in any treatment group, Safety population

Gly(A21)-Arg(B31)-Arg(B32)-human insulin [Insulin Glargine]
Average of 7-point SMPG, change from baseline to Week 30, LS Mean (SE) ([1]; MMRM): −2.66 (0.084) mmol/L
Average of 7-point SMPG, Week 30, Mean (SD) [1]: 7.75 (1.49) mmol/L
Average of 7-point SMPG, Week 30, Median [1]: 7.49 mmol/L
% of patients experiencing injection site reactions: Any injection site reactions [2]: 0.5%
% of patients experiencing injection site reactions: Injection site hypertrophy [2]: 0.3%
% of patients experiencing injection site reactions: Injection site reaction [2]: 0.3%
% of patients experiencing injection site reactions: PTs coded from the investigator reported terms [2]: 0.5%
Number of patients experiencing injection site reactions: Any injection site reactions [2]: 2
Number of patients experiencing injection site reactions: Injection site hypertrophy [2]: 1
Number of patients experiencing injection site reactions: Injection site reaction [2]: 1
Number of patients experiencing injection site reactions: PTs coded from the investigator reported terms [2]: 2
Patients who experienced injection site reactions [2]: 2 patients
Any injection site reactions [3]: 8 (1.7%) Number (%)
Injection site bruising [3]: 4 (0.9%) Number (%)
Injection site discomfort [3]: 0 Number (%)
Injection site erythema [3]: 0 Number (%)
Injection site haemorrhage [3]: 2 (0.4%) Number (%)
Injection site irritation [3]: 0 Number (%)
Injection site nodule [3]: 0 Number (%)
Injection site pain [3]: 2 (0.4%) Number (%)
Injection site papule [3]: 0 Number (%)
Injection site rash [3]: 0 Number (%)
Injection site reactions, % of patients [3]: 1.7%
Injection site reactions: PTs coded from the ARAC diagnosis terms [3]: 0 Number (%)
Injection site reactions: PTs coded from the investigator reported terms [3]: 8 (1.7%) Number (%)
Injection site swelling [3]: 1 (0.2%) Number (%)
Injection site warmth [3]: 1 (0.2%) Number (%)
Diarrhoea, % of patients ([4]; Example 3): 2.7%
Incidence of gastrointestinal disorder (System organ class) events ([4]; Example 3): 7.9%
Nasopharyngitis, % of patients ([4]; Example 3): 8.8%
Nausea, % of patients ([4]; Example 3): 0.5%
Patients discontinuing due to nausea, number ([4]; Example 3): none
Patients reporting treatment-emergent adverse events, % ([4]; Example 3): 52.3%
Patients reporting treatment-emergent adverse events, number ([4]; Example 3): 191 patients
Patients who withdrew from treatment due to TEAEs, % ([4]; Example 3): 0.8%
Patients who withdrew from treatment due to TEAEs, number ([4]; Example 3): 3 patients
Patients with at least 1 TEAE leading to death ([4]; Example 3): 2 patients
Serious TEAEs, % of patients ([4]; Example 3): 4.9%
Serious TEAEs, number of patients ([4]; Example 3): 18 patients
Vomiting, % of patients ([4]; Example 3): 0.5%
Common TEAE, PT Diarrhoea, number of patients [4, 5]: 10 n
Common TEAE, PT Diarrhoea, percentage of patients [4, 5]: (2.7%)
Common TEAE, PT Headache, number of patients [4, 5]: 10 n
Common TEAE, PT Headache, percentage of patients [4, 5]: (2.7%)
Common TEAE, PT Influenza, number of patients [4, 5]: 11 n
Common TEAE, PT Influenza, percentage of patients [4, 5]: (3.0%)
Common TEAE, PT Nasopharyngitis, number of patients [4, 5]: 32 n
Common TEAE, PT Nasopharyngitis, percentage of patients [4, 5]: (8.8%)
Common TEAE, PT Nausea, number of patients [4, 5]: 2 n
Common TEAE, PT Nausea, percentage of patients [4, 5]: (0.5%)
Common TEAE, PT Upper respiratory tract infection, number of patients [4, 5]: 11 n
Common TEAE, PT Upper respiratory tract infection, percentage of patients [4, 5]: (3.0%)
Common TEAE, PT Vomiting, number of patients [4, 5]: 2 n
Common TEAE, PT Vomiting, percentage of patients [4, 5]: (0.5%)
Common TEAE, SOC Gastrointestinal disorders, number of patients [4, 5]: 29 n
Common TEAE, SOC Gastrointestinal disorders, percentage of patients [4, 5]: (7.9%)
Common TEAE, SOC Infections and infestations, number of patients [4, 5]: 112 n
Common TEAE, SOC Infections and infestations, percentage of patients [4, 5]: (30.7%)
Common TEAE, SOC Nervous system disorders, number of patients [4, 5]: 19 n
Common TEAE, SOC Nervous system disorders, percentage of patients [4, 5]: (5.2%)
% of patients experiencing TEAE(s) leading to permanent treatment discontinuation: Cardiopulmonary failure ([4]; PT, Safety population): (0.3%)
% of patients experiencing TEAE(s) leading to permanent treatment discontinuation: Gallbladder cancer ([4]; PT, Safety population): (0.3%)
% of patients experiencing TEAE(s) leading to permanent treatment discontinuation: Pregnancy ([4]; PT, Safety population): (0.3%)
% of patients experiencing serious TEAE(s): Benign prostatic hyperplasia ([4]; PT, Safety population): (0.3%)
% of patients experiencing serious TEAE(s): Cardiac failure congestive ([4]; PT, Safety population): (0.3%)
% of patients experiencing serious TEAE(s): Cardiopulmonary failure ([4]; PT, Safety population): (0.3%)
% of patients experiencing serious TEAE(s): Chest discomfort ([4]; PT, Safety population): (0.3%)
% of patients experiencing serious TEAE(s): Cholecystitis acute ([4]; PT, Safety population): (0.3%)
% of patients experiencing serious TEAE(s): Gallbladder cancer ([4]; PT, Safety population): (0.3%)
% of patients experiencing serious TEAE(s): Glaucoma ([4]; PT, Safety population): (0.3%)
% of patients experiencing serious TEAE(s): Hypertension ([4]; PT, Safety population): (0.3%)
% of patients experiencing serious TEAE(s): Hypoglycaemia ([4]; PT, Safety population): (0.3%)
% of patients experiencing serious TEAE(s): Intervertebral disc protrusion ([4]; PT, Safety population): (0.3%)
% of patients experiencing serious TEAE(s): Kaposi’s sarcoma ([4]; PT, Safety population): (0.3%)
% of patients experiencing serious TEAE(s): Meniscus injury ([4]; PT, Safety population): (0.3%)
% of patients experiencing serious TEAE(s): Non-cardiac chest pain ([4]; PT, Safety population): (0.3%)
% of patients experiencing serious TEAE(s): Osteomyelitis ([4]; PT, Safety population): (0.3%)
% of patients experiencing serious TEAE(s): Pneumonia ([4]; PT, Safety population): (0.3%)
% of patients experiencing serious TEAE(s): Renal impairment ([4]; PT, Safety population): (0.3%)
% of patients experiencing serious TEAE(s): Wound infection ([4]; PT, Safety population): (0.3%)
Number of patients experiencing TEAE(s) leading to permanent treatment discontinuation: Angina unstable ([4]; PT, Safety population): 0
Number of patients experiencing TEAE(s) leading to permanent treatment discontinuation: Benign gastric neoplasm ([4]; PT, Safety population): 0
